{"source": "paper PMC6181577", "origin": "cited, not measured here", "molecular_target": "UBQLN2 UBA (Homo sapiens) (UniProt Q9UHD9)", "sequence (Q9UHD9 578-624)": "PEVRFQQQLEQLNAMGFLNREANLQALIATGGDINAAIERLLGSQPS", "data": [{"substance": "UBQLN2 UBL (from UniProt Q9UHD9)", "values": [{"measurement": "Kd", "value": 175, "unit": "µM"}]}]}
